Measured values taken from the supplement of paper PMC11246515.
± gives the standard deviation of the averaged measurements.

Assay: total protein half-life in vivo (active degradation + dilution); higher = more stable protein
[1] = E. coli NCM3722 delta-clpP delta-lon delta-hslV, growth: N-lim chemostat, doubling time 6 h
[2] = E. coli NCM3722 delta-clpP, growth: N-lim chemostat, doubling time 6 h
[3] = E. coli NCM3722 delta-lon, growth: N-lim chemostat, doubling time 6 h
[4] = E. coli NCM3722 delta-smpB, growth: N-lim chemostat, doubling time 6 h
[5] = wild type E. coli NCM3722, growth: C-lim chemostat, doubling time 3 h
[6] = wild type E. coli NCM3722, growth: N-lim chemostat, doubling time 6 h
[7] = wild type E. coli NCM3722, growth: N-lim chemostat, doubling time 12 h
[8] = wild type E. coli NCM3722, growth: P-lim chemostat, doubling time 6 h
[9] = E. coli NCM3722 delta-hslV, growth: N-lim chemostat, doubling time 6 h
[10] = wild type E. coli NCM3722, growth: C-lim chemostat, doubling time 6 h
[11] = wild type E. coli NCM3722, growth: C-lim chemostat, doubling time 12 h
[12] = wild type E. coli NCM3722, growth: P-lim chemostat, doubling time 12 h

Row | Sequence | total protein half-life in vivo [1] [h] | total protein half-life in vivo [2] [h] | total protein half-life in vivo [3] [h] | total protein half-life in vivo [4] [h] | total protein half-life in vivo [5] [h] | total protein half-life in vivo [6] [h] | total protein half-life in vivo [7] [h] | total protein half-life in vivo [8] [h] | total protein half-life in vivo [9] [h] | total protein half-life in vivo [10] [h] | total protein half-life in vivo [11] [h] | total protein half-life in vivo [12] [h]
1 | MKADNPFDLLLPAAMAKVAEEAGVYKATKHPLKTFYLAITAGVFISIAFVFYITATTGTGTMPFGMAKLVGGICFSLGLILCVVCGADLFTSTVLIVVAKASGRITWGQLAKNWLNVYFGNLVGALLFVLLMWLSGEYMTANGQWGLNVLQTADHKVHHTFIEAVCLGILANLMVCLAVWMSYSGRSLMDKAFIMVLPVAMFVASGFEHSIANMFMIPMGIVIRDFASPEFWTAVGSAPENFSHLTVMNFITDNLIPVTIGNIIGGGLLVGLTYWVIYLRENDHH [P0AC23] | 6.43 ± 0.36 | 7.27 ± 0.55 | 5.87 ± 0.32 | 6.66 ± 1.2 | 3.67 | 6.07 ± 0.59 | 11.5 ± 0.42 | 6.402 ± 0.033 | – | – | – | –
2 | MKAFWRNAALLAVSLLPFSSANALALQAKQYGDFDRYVLALSWQTGFCQSQHDRNRNERDECRLQTETTNKADFLTVHGLWPGLPKSVAARGVDERRWMRFGCATRPIPNLPEARASRMCSSPETGLSLETAAKLSEVMPGAGGRSCLERYEYAKHGACFGFDPDAYFGTMVRLNQEIKESEAGKFLADNYGKTVSRRDFDAAFAKSWGKENVKAVKLTCQGNPAYLTEIQISIKADAINAPLSANSFLPQPHPGNCGKTFVIDKAGY | 5.86 ± 0.29 | – | 6.91 ± 0.17 | 5.96 ± 0.5 | 2.91 ± 0.23 | 5.72 ± 0.6 | 12.8 ± 0.28 | 5.74 ± 0.09 | 6.73 ± 0.69 | 6.59 ± 1.8 | – | –
3 | MKALHFGAGNIGRGFIGKLLADAGIQLTFADVNQVVLDALNARHSYQVHVVGETEQVDTVSGVNAVSSIGDDVVDLIAQVDLVTTAVGPVVLERIAPAIAKGQVKRKEQGNESPLNIIACENMVRGTTQLKGHVMNALPEDAKAWVEEHVGFVDSAVDRIVPPSASATNDPLEVTVETFSEWIVDKTQFKGALPNIPGMELTDNLMAFVERKLFTLNTGHAITAYLGKLAGHQTIRDAILDEKIRAVVKGAMEESGAVLIKRYGFDADKHAAYIQKILGRFENPYLKDDVERVGRQPLRKLSAGDRLIKPLLGTLEYGLPHKNLIEGIAAAMHFRSEDDPQAQELAALIADKGPQAALAQISGLDANSEVVSEAVTAYKAMQ | 5.84 ± 2 | 4.85 ± 0.21 | 4.91 ± 0.1 | 4.6 ± 0.39 | – | 4.86 ± 0.35 | 8.39 ± 0.13 | 6.02 ± 0.068 | 5.32 ± 0.44 | 6.18 ± 0.63 | 10.8 ± 1.2 | 11.6 ± 0.34
4 | MKALTARQQEVFDLIRDHISQTGMPPTRAEIAQRLGFRSPNAAEEHLKALARKGVIEIVSGASRGIRLLQEEEEGLPLVGRVAAGEPLLAQQHIEGHYQVDPSLFKPNADFLLRVSGMSMKDIGIMDGDLLAVHKTQDVRNGQVVVARIDDEVTVKRLKKQGNKVELLPENSEFKPIVVDLRQQSFTIEGLAVGVIRNGDWL [P0A7C2] | 3.01 ± 0.14 | 2.31 ± 0.15 | 3.9 ± 0.1 | 3.03 ± 0.12 | 1.91 ± 0.16 | 3.25 ± 0.28 | 4.784 ± 0.043 | 2.68 ± 0.22 | 3.18 ± 0.11 | 3.21 ± 0.11 | 4.65 ± 0.17 | 4.77 ± 0.42
5 | MKAPGLPADQQFFADLFSGLVLNPQLLGRVWFASQPASLPVGSLCIDFPRLDIVLRGEYGNLLEAKQQRLVEGEMLFIPARAANLPVNNKPVMLLSLVFAPTWLGLSFYDSRTTSLLHPARQIQLPSLQRGEGEAMLTALTHLSRSPLEQNIIQPLVLSLLHLCRSVVNMPPGNSQPRGDFLYHSICNWVQDNYAQPLTRESVAQFFNITPNHLSKLFAQHGTMRFIEYVRWVRMAKARMILQKYHLSIHEVAQRCGFPDSDYFCRVFRRQFGLTPGEYSARFQG | 5.03 | – | – | – | – | – | – | – | – | 1.83 | – | –
6 | MKATKLVLGAVILGSTLLAGCSSNAKIDQLSSDVQTLNAKVDQLSNDVNAMRSDVQAAKDDAARANQRLDNMATKYRK | 5.79 ± 1.4 | 6.38 ± 0.67 | – | 5.03 ± 0.051 | 3.11 ± 0.35 | 5.81 ± 0.7 | 11.7 ± 3.1 | 5.66 ± 0.3 | 5.95 ± 0.4 | 4.92 ± 0.76 | 11.2 ± 3.2 | 12.1 ± 0.34
7 | MKDERRPICEVVAESIERLIIDGVLKVGQPLPSERRLCEKLGFSRSALREGLTVLRGRGIIETAQGRDSRVARLNRVQDTSPLIHLFSTQPRTLYDLLDVRALLEGESARLAATLGTQADFVVITRCYEKMLAASENNKEISLIEHAQLDHAFHLAICQASHNQVLVFTLQSLTDLMFNSVFASVNNLYHRPQQKKQIDRQHARIYNAVLQRLPHVAQRAARDHVRTVKKNLHDIELEGHHLIRSAVPLEMNLS [P0ACL5] | 4.767 ± 0.025 | 1.35 | 1.21 | 1.37 ± 0.029 | 1.3 ± 0.1 | 1.21 ± 0.14 | 1.68 ± 0.18 | 1.56 ± 0.22 | – | 2.15 ± 0.25 | 2.35 ± 0.16 | 2.65 ± 0.72
8 | MKDVVIVGALRTPIGCFRGALAGHSAVELGSLVVKALIERTGVPAYAVDEVILGQVLTAGAGQNPARQSAIKGGLPNSVSAITINDVCGSGLKALHLATQAIQCGEADIVIAGGQENMSRAPHVLTDSRTGAQLGNSQLVDSLVHDGLWDAFNDYHIGVTAENLAREYGISRQLQDAYALSSQQKARAAIDAGRFKDEIVPVMTQSNGQTLVVDTDEQPRTDASAEGLARLNPSFDSLGSVTAGNASSINDGAAAVMMMSEAKARALNLPVLARIRAFASVGVDPALMGIAPVYATRRCLERVGWQLAEVDLIEANEAFAAQALSVGKMLEWDERRVNVNGGAIALGHPIGASGCRILVSLVHEMVKRNARKGLATLCIGGGQGVALTIERDE | 5.29 ± 0.14 | – | – | – | 1.35 ± 0.2 | – | – | 0.858 | – | 2.66 ± 0.38 | 3.57 ± 0.4 | 2 ± 0.37
